The values that follow come from publication PMC9499628, “Nuclear Factor Kappa B Promotes Ferritin Heavy Chain Expression in Bombyx mori in Response to B. mori Nucleopolyhedrovirus Infection”.

Data set [1] addresses T1, BmRelish RHD (RelRHD) (Bombyx mori, UniProt A0A8R2LW60 51-335).
T1 sequence: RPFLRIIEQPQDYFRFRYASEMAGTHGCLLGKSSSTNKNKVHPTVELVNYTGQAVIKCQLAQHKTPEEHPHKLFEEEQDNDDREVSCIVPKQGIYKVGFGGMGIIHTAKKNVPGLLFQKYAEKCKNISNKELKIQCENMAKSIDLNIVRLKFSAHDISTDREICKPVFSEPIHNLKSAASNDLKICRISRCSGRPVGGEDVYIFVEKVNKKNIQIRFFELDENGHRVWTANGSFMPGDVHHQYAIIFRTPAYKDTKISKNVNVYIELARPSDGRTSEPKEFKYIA
The data set is described as follows: EMSA; cold probe weakens band; Chemiluminescent EMSA Kit (Beyotime), manufacturer's instructions; buffer, salt, pH and temperature not stated. As to conditions: protein: recombinant; tags: 6xHis (pET-30a); chain copies: 2; label: 5' biotin (unlabelled as cold probe); blunt. Background: In EMSA bound probe runs differently from free probe, usually more slowly.

Data set [2] has as its target T1, BmRelish RHD (RelRHD). The data set is described as follows: competition; mutant competitor against CRE2 probe; band not affected; Chemiluminescent EMSA Kit (Beyotime), manufacturer's instructions; buffer, salt, pH and temperature not stated. The note with it: protein: recombinant; tags: 6xHis (pET-30a); chain copies: 2; blunt.
Data set [3] deals with T1, BmRelish RHD (RelRHD). The data set is described as follows: competition; mutant competitor against CRE4 probe; band not affected; Chemiluminescent EMSA Kit (Beyotime), manufacturer's instructions; buffer, salt, pH and temperature not stated. As to conditions: protein: recombinant; tags: 6xHis (pET-30a); chain copies: 2; blunt.

B1: probe-CRE4 (dsDNA)
DNA 1: AATAAGTGGGAATCTCTCCATCTCGC
DNA 2: GCGAGATGGAGAGATTCCCACTTATT
As to B1, the binding result in the data set with BmRelish RHD (RelRHD) [1] was “binds”.

B2: Mut-CRE2 (dsDNA)
DNA 1: AATGTACATTATCTCCATCTCG
DNA 2: CGAGATGGAGATAATGTACATT
Take B2: the binding result with BmRelish RHD (RelRHD) [2] is given as “no binding”.

B3: probe-CRE2 (dsDNA)
DNA 1: AATGTAGGTTATTTCCATCTCG
DNA 2: CGAGATGGAAATAACCTACATT
For the molecule B3, the binding result in the data set with BmRelish RHD (RelRHD) [1] is recorded as “binds”.

B4: Mut-CRE4 (dsDNA)
DNA 1: AATAAGTGCCAAACACTCCATCTCGC
DNA 2: GCGAGATGGAGTGTTTGGCACTTATT
As for B4, the binding result in the data set with BmRelish RHD (RelRHD) [3] is “no binding”.
